Reference: US20110318339A1
Values belong to the binder of their own block, whether it stands above or below them.

Experiments:
[1] = biological target: rHuman HGF R/c-MET/Fc Chimera, CF (Cat# 358-MT/CF, R&D Systems) (human) (UniProt P08581); test: Multispot ECL; Fab 480 nM; blank 362
[2] = biological target: rHuman IGF-1 sR, (IGF-1 sR), CF (Cat# 391-GR, R&D Systems) (human) (UniProt P08069); test: Multispot ECL; Fab 480 nM; blank 362
[3] = biological target: rHuman ErbB2/Fc Chimera, CF (Cat# 1129-ER, R&D Systems) (human) (UniProt P04626); test: Multispot ECL; Fab 480 nM; blank 362
[4] = biological target: rHuman EGF R/Fc Chimera, CF (Cat# 344-ER, R&D Systems) (human) (UniProt P00533); test: Multispot ECL; Fab 480 nM; blank 362
[5] = biological target: rHuman HGF R/c-MET/Fc Chimera, CF (Cat# 358-MT/CF, R&D Systems) (human) (UniProt P08581); test: Multispot ECL; Fab 60 nM; blank 237
[6] = biological target: rHuman IGF-1 sR, (IGF-1 sR), CF (Cat# 391-GR, R&D Systems) (human) (UniProt P08069); test: Multispot ECL; Fab 60 nM; blank 237
[7] = biological target: rHuman ErbB2/Fc Chimera, CF (Cat# 1129-ER, R&D Systems) (human) (UniProt P04626); test: Multispot ECL; Fab 60 nM; blank 237
[8] = biological target: rHuman EGF R/Fc Chimera, CF (Cat# 344-ER, R&D Systems) (human) (UniProt P00533); test: Multispot ECL; Fab 60 nM; blank 237
[9] = biological target: rHuman HGF R/c-MET/Fc Chimera, CF (Cat# 358-MT/CF, R&D Systems) (human) (UniProt P08581); test: Multispot ECL; Fab 15 nM; blank 261
[10] = biological target: rHuman IGF-1 sR, (IGF-1 sR), CF (Cat# 391-GR, R&D Systems) (human) (UniProt P08069); test: Multispot ECL; Fab 15 nM; blank 261
[11] = biological target: rHuman ErbB2/Fc Chimera, CF (Cat# 1129-ER, R&D Systems) (human) (UniProt P04626); test: Multispot ECL; Fab 15 nM; blank 261
[12] = biological target: rHuman EGF R/Fc Chimera, CF (Cat# 344-ER, R&D Systems) (human) (UniProt P00533); test: Multispot ECL; Fab 15 nM; blank 261
[13] = biological target: rHuman HGF R/c-MET/Fc Chimera, CF (Cat# 358-MT/CF, R&D Systems) (human) (UniProt P08581); test: Multispot ECL; Fab 3.8 nM; blank 198
[14] = biological target: rHuman IGF-1 sR, (IGF-1 sR), CF (Cat# 391-GR, R&D Systems) (human) (UniProt P08069); test: Multispot ECL; Fab 3.8 nM; blank 198
[15] = biological target: rHuman ErbB2/Fc Chimera, CF (Cat# 1129-ER, R&D Systems) (human) (UniProt P04626); test: Multispot ECL; Fab 3.8 nM; blank 198
[16] = biological target: rHuman EGF R/Fc Chimera, CF (Cat# 344-ER, R&D Systems) (human) (UniProt P00533); test: Multispot ECL; Fab 3.8 nM; blank 198
[17] = biological target: rHuman HGF R/c-MET/Fc Chimera, CF (Cat# 358-MT/CF, R&D Systems) (human) (UniProt P08581); test: Multispot ECL; Fab 30 nM; blank 213
[18] = biological target: rHuman IGF-1 sR, (IGF-1 sR), CF (Cat# 391-GR, R&D Systems) (human) (UniProt P08069); test: Multispot ECL; Fab 30 nM; blank 213
[19] = biological target: rHuman ErbB2/Fc Chimera, CF (Cat# 1129-ER, R&D Systems) (human) (UniProt P04626); test: Multispot ECL; Fab 30 nM; blank 213
[20] = biological target: rHuman EGF R/Fc Chimera, CF (Cat# 344-ER, R&D Systems) (human) (UniProt P00533); test: Multispot ECL; Fab 30 nM; blank 213
[21] = biological target: rHuman HGF R/c-MET/Fc Chimera, CF (Cat# 358-MT/CF, R&D Systems) (human) (UniProt P08581); test: Multispot ECL; Fab 120 nM; blank 363
[22] = biological target: rHuman IGF-1 sR, (IGF-1 sR), CF (Cat# 391-GR, R&D Systems) (human) (UniProt P08069); test: Multispot ECL; Fab 120 nM; blank 363
[23] = biological target: rHuman ErbB2/Fc Chimera, CF (Cat# 1129-ER, R&D Systems) (human) (UniProt P04626); test: Multispot ECL; Fab 120 nM; blank 363
[24] = biological target: rHuman EGF R/Fc Chimera, CF (Cat# 344-ER, R&D Systems) (human) (UniProt P00533); test: Multispot ECL; Fab 120 nM; blank 363
[25] = biological target: rHuman HGF R/c-MET/Fc Chimera, CF (Cat# 358-MT/CF, R&D Systems) (human) (UniProt P08581); test: Multispot ECL; Fab 7.5 nM; blank 217
[26] = biological target: rHuman IGF-1 sR, (IGF-1 sR), CF (Cat# 391-GR, R&D Systems) (human) (UniProt P08069); test: Multispot ECL; Fab 7.5 nM; blank 217
[27] = biological target: rHuman ErbB2/Fc Chimera, CF (Cat# 1129-ER, R&D Systems) (human) (UniProt P04626); test: Multispot ECL; Fab 7.5 nM; blank 217
[28] = biological target: rHuman EGF R/Fc Chimera, CF (Cat# 344-ER, R&D Systems) (human) (UniProt P00533); test: Multispot ECL; Fab 7.5 nM; blank 217
[29] = biological target: rHuman HGF R/c-MET/Fc Chimera, CF (Cat# 358-MT/CF, R&D Systems) (human) (UniProt P08581); test: Multispot ECL; Fab 240 nM; blank 316
[30] = biological target: rHuman IGF-1 sR, (IGF-1 sR), CF (Cat# 391-GR, R&D Systems) (human) (UniProt P08069); test: Multispot ECL; Fab 240 nM; blank 316
[31] = biological target: rHuman ErbB2/Fc Chimera, CF (Cat# 1129-ER, R&D Systems) (human) (UniProt P04626); test: Multispot ECL; Fab 240 nM; blank 316
[32] = biological target: rHuman EGF R/Fc Chimera, CF (Cat# 344-ER, R&D Systems) (human) (UniProt P00533); test: Multispot ECL; Fab 240 nM; blank 316
[33] = biological target: rHuman HGF R/c-MET/Fc Chimera, CF (Cat# 358-MT/CF, R&D Systems) (human) (UniProt P08581); test: Multispot ECL; Fab 6 nM; blank 191
[34] = biological target: rHuman IGF-1 sR, (IGF-1 sR), CF (Cat# 391-GR, R&D Systems) (human) (UniProt P08069); test: Multispot ECL; Fab 6 nM; blank 191
[35] = biological target: rHuman ErbB2/Fc Chimera, CF (Cat# 1129-ER, R&D Systems) (human) (UniProt P04626); test: Multispot ECL; Fab 6 nM; blank 191
[36] = biological target: rHuman EGF R/Fc Chimera, CF (Cat# 344-ER, R&D Systems) (human) (UniProt P00533); test: Multispot ECL; Fab 6 nM; blank 191
[37] = biological target: rHuman HGF R/c-MET/Fc Chimera, CF (Cat# 358-MT/CF, R&D Systems) (human) (UniProt P08581); test: Multispot ECL; Fab 51 nM; blank 335
[38] = biological target: rHuman IGF-1 sR, (IGF-1 sR), CF (Cat# 391-GR, R&D Systems) (human) (UniProt P08069); test: Multispot ECL; Fab 51 nM; blank 335
[39] = biological target: rHuman ErbB2/Fc Chimera, CF (Cat# 1129-ER, R&D Systems) (human) (UniProt P04626); test: Multispot ECL; Fab 51 nM; blank 335
[40] = biological target: rHuman EGF R/Fc Chimera, CF (Cat# 344-ER, R&D Systems) (human) (UniProt P00533); test: Multispot ECL; Fab 51 nM; blank 335
[41] = biological target: rHuman HGF R/c-MET/Fc Chimera, CF (Cat# 358-MT/CF, R&D Systems) (human) (UniProt P08581); test: Multispot ECL; Fab 154 nM; blank 447
[42] = biological target: rHuman IGF-1 sR, (IGF-1 sR), CF (Cat# 391-GR, R&D Systems) (human) (UniProt P08069); test: Multispot ECL; Fab 154 nM; blank 447
[43] = biological target: rHuman ErbB2/Fc Chimera, CF (Cat# 1129-ER, R&D Systems) (human) (UniProt P04626); test: Multispot ECL; Fab 154 nM; blank 447
[44] = biological target: rHuman EGF R/Fc Chimera, CF (Cat# 344-ER, R&D Systems) (human) (UniProt P00533); test: Multispot ECL; Fab 154 nM; blank 447
[45] = biological target: rHuman HGF R/c-MET/Fc Chimera, CF (Cat# 358-MT/CF, R&D Systems) (human) (UniProt P08581); test: Multispot ECL; Fab 17 nM; blank 143
[46] = biological target: rHuman IGF-1 sR, (IGF-1 sR), CF (Cat# 391-GR, R&D Systems) (human) (UniProt P08069); test: Multispot ECL; Fab 17 nM; blank 143
[47] = biological target: rHuman ErbB2/Fc Chimera, CF (Cat# 1129-ER, R&D Systems) (human) (UniProt P04626); test: Multispot ECL; Fab 17 nM; blank 143
[48] = biological target: rHuman EGF R/Fc Chimera, CF (Cat# 344-ER, R&D Systems) (human) (UniProt P00533); test: Multispot ECL; Fab 17 nM; blank 143

ECL signal [1]: 951
ECL signal [2]: 741
ECL signal [3]: 965
ECL signal [4]: 877
ECL signal [5]: 623
ECL signal [6]: 654
ECL signal [7]: 777
ECL signal [8]: 679
ECL signal [9]: 694
ECL signal [10]: 705
ECL signal [11]: 713
ECL signal [12]: 584
ECL signal [13]: 519
ECL signal [14]: 463
ECL signal [15]: 714
ECL signal [16]: 511
ECL signal [17]: 640
ECL signal [18]: 697
ECL signal [19]: 726
ECL signal [20]: 585
ECL signal [21]: 785
ECL signal [22]: 813
ECL signal [23]: 822
ECL signal [24]: 658
ECL signal [25]: 558
ECL signal [26]: 642
ECL signal [27]: 695
ECL signal [28]: 582
ECL signal [29]: 834
ECL signal [30]: 625
ECL signal [31]: 833
ECL signal [32]: 690
B1: Fab VH6-1_IGHD3-3*01_IGHJ4*01 & V4-3_IGLJ4*01 (Fab, V domains shown)
VH: QVQLQQSGPGLVKPSQTLSLTCAISGDSVSSNSAAWNWIRQSPSRGLEWLGRTYYRSKWYNDYAVSVKSRITINPDTSKNQFSLQLNSVTPEDTAVYYCAREYYDFWSGYYTDYFDYWGQGTLVTVSS
VL: QPVLTQPTSLSASPGASARLTCTLRSGINLGSYRIFWYQQKPESPPRYLLSYYSDSSKHQGSGVPSRFSGSKDASSNAGILVISGLQSEDEADYYCMIWHSSASFVFGGGTQLIIL

ECL signal [33]: 831
ECL signal [34]: 854
ECL signal [35]: 873
ECL signal [36]: 742
ECL signal [37]: 1040
ECL signal [38]: 1050
ECL signal [39]: 1250
ECL signal [40]: 816
ECL signal [41]: 1520
ECL signal [42]: 1400
ECL signal [43]: 1590
ECL signal [44]: 1400
ECL signal [45]: 914
ECL signal [46]: 872
ECL signal [47]: 1030
ECL signal [48]: 805
B2: Fab VH5-51_IGHD5-18*01>3_IGHJ4*01 & V3-4_IGLJ1*01 (Fab, V domains shown)
VH: EVQLVQSGAEVKKPGESLKISCKGSGYSFTSYWIGWVRQMPGKGLEWMGIIYPGDSDTRYSPSFQGQVTISADKSISTAYLQWSSLKASDTAMYYCARRGYSYGYDYFDYWGQGTLVTVSS
VL: QTVVTQEPSFSVSPGGTVTLTCGLSSGSVSTSYYPSWYQQTPGQAPRTLIYSTNTRSSGVPDRFSGSILGNKAALTITGAQADDESDYYCVLYMGSGISYVFGTGTKVTVL
